# Measurements taken from US20100068766A1, “COMPOSITION FOR CLEAVING AND/OR CONNECTING SINGLE STRAND DNA” (WASEDA UNIVERSITY, priority 2007, published 2010).
# T1: Ev1 protein (Homo sapiens, UniProt Q9UI08)
# T1 construct: in accordance with the protocols used in purification of the entire-length Ev1 protein; 6xHis (N, cleaved yes); made in house; host or cells: E. coli BL21 (DE3) codon plus-RP, pET15b vector
# T1 sequence (Q9UI08 1-418 isoform Q9UI08-2): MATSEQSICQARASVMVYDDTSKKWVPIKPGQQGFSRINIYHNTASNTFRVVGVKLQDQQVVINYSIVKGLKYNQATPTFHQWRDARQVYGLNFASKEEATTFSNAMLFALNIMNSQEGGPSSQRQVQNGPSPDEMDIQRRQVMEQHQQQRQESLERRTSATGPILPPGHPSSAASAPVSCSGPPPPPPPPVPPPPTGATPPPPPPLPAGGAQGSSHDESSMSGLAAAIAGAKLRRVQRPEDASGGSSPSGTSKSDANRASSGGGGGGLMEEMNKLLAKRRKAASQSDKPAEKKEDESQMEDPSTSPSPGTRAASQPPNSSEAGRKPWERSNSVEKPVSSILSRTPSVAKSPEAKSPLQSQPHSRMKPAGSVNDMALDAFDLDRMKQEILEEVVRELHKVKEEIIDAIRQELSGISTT
# Key:
# Ev1 protein [1] = target: T1, Ev1 protein; assay: Influence of Rad51B or Rad51 on catenation of single-stranded DNA by the Ev1 protein; assay type: biochemical
# Description: Lanes 1 and 5 indicate the results of control experiments in which neither the Ev1 nor the Rad51B protein was used. Lanes 2 and 6 indicate the results of experiments that were carried out using a 4 μM Rad51B protein in the absence of the Ev1 protein. Lanes 3 and 7 indicate the results of experiments that were carried out using a 4 μM Ev1 protein in the absence of the Rad51B protein. Lanes 4 and 8 indicate the results of experiments that were carried out using a 4 μM Ev1 protein and a 4 μM Rad51B protein. Further, lanes 1-4 indicate the results of experiments that were carried out in the presence of ATP, and lanes 5-8 indicate the results of experiments that were carried out in the absence of ATP. […] Lanes 1 and 5 indicate the results of control experiments in which neither the Ev1 nor the Rad51 protein was used. Lanes 2 and 6 indicate the results of experiments that were carried out using a 4 μM Rad51 protein in the absence of the Ev1 protein. Lanes 3 and 7 indicate the results of experiments that were carried out using a 4 μM Ev1 protein in the absence of the Rad51 protein. Lanes 4 and 8 indicate the results of experiments that were carried out using a 4 μM Ev1 protein and a 4 μM Rad51 protein. Further, lanes 1-4 indicate the results of experiments that were carried out in the presence of ATP, and lanes 5-8 indicate the results of experiments that were carried out in the absence of ATP.
# The Rad51B protein was mixed in a concentration of 0.5 to 8 μM with a 4 μM Ev1 protein, and the activity was then measured. Lane 1 indicates the results of a control experiment in which neither the Rad51B protein nor the Ev1 protein was added, and lane 8 indicates the results of a control experiment in which a 8 μM Rad51B protein was added and no Ev1 protein was added. Lanes 2-7 indicate the results of experiments in which the Rad51B protein was added in concentrations of 0 μM, 0.5 μM, 1.0 μM, 2.0 μM, 4.0 μM, and 8.0 μM, respectively, in the presence of 4 μM Ev1.
# A φ×174 or M13 mp18 circular single-stranded DNA (20 μM) was incubated at 37° C. in 20 mM HEPES-NaOH (pH 7.5), 1 mM DTT, 1 mM MgCl2, and 0.1 mg/ml BSA. Thereafter, the sample was subjected to a deproteination treatment with 0.2% SDS and 1.3 mg/ml proteinase K. The obtained product was separated by 0.9% agarose gel electrophoresis, and a DNA band was then stained with SYBR Gold (Invitrogen).
# Ev1 protein [2] = target: T1, Ev1 protein; assay: Catenation of single-stranded DNA in coexistence of DNA topoisomerase type I protein and Ev1 protein; assay type: biochemical; conditions: 20 μM φ×174 single-stranded DNA; 37° C., 1 hour; E. coli TopoI 0.05-5 U or 2.8 nM hsTopoI
# Description: A 20 μM φ×174 single-stranded DNA, a 4 μM Ev1 protein, and a DNA topoisomerase type I protein in each concentration or unit number (derived from Escherichia coli or a human) were added to 10 μl of a reaction solution (20 mM HEPES, 1 mM DTT, 100 μg/ml BSA, and 1 mM MgCl2). The obtained mixture was reacted at 37° C. for 1 hour. Thereafter, the sample was subjected to a deproteination treatment using 0.2% SDS and 1.3 mg/ml proteinase K. The obtained product was separated by 0.9% agarose gel electrophoresis, and a DNA band was then stained with SYBR Gold (Invitrogen) (FIG. 13).
molecule,measurement,setting,value
"Rad51 protein: Rad51 protein showing sequence similarity to Rad51B (protein, UniProt Q06609 2-339, looked up) DNA repair protein RAD51 …: AMQMQLEANADTSVEEESFGPQPISRLEQCGINANDVKKLEEAGFHTVEAVAYAPKKELINIKGISEAKADKILAEAAKLVPMGFTTATEFHQRRSEIIQITTGSKELDKLLQGGIETGSITEMFGEFRTGKTQICHTLAVTCQLPIDRGGGEGKAMYIDTEGTFRPERLLAVAERYGLSGSDVLDNVAYARAFNTDHQTQLLYQASAMMVESRYALLIVDSATALYRTDYSGRGELSARQMHLARFLRMLLRLADEFGVAVVITNQVVAQVDGAAMFAADPKKPIGGNIIAHASTTRLYLRKGRGETRICKIYDSPCLPEAEAMFAINADGVGDAKD",effect on catenation of DNA molecules by the Ev1 protein,"Ev1 protein [1]; 4 μM Rad51, 4 μM Ev1 protein, regardless of presence or absence of ATP",inhibited the catenation of DNA molecules by the Ev1 protein
"DNA topoisomerase type I protein derived from a human: hsTopoI (human, Jena Bioscience) (protein, UniProt P11387 2-765, looked up) DNA topoisomerase 1: SGDHLHNDSQIEADFRLNDSHKHKDKHKDREHRHKEHKKEKDREKSKHSNSEHKDSEKKHKEKEKTKHKDGSSEKHKDKHKDRDKEKRKEEKVRASGDAKIKKEKENGFSSPPQIKDEPEDDGYFVPPKEDIKPLKRPRDEDDADYKPKKIKTEDTKKEKKRKLEEEEDGKLKKPKNKDKDKKVPEPDNKKKKPKKEEEQKWKWWEEERYPEGIKWKFLEHKGPVFAPPYEPLPENVKFYYDGKVMKLSPKAEEVATFFAKMLDHEYTTKEIFRKNFFKDWRKEMTNEEKNIITNLSKCDFTQMSQYFKAQTEARKQMSKEEKLKIKEENEKLLKEYGFCIMDNHKERIANFKIEPPGLFRGRGNHPKMGMLKRRIMPEDIIINCSKDAKVPSPPPGHKWKEVRHDNKVTWLVSWTENIQGSIKYIMLNPSSRIKGEKDWQKYETARRLKKCVDKIRNQYREDWKSKEMKVRQRAVALYFIDKLALRAGNEKEEGETADTVGCCSLRVEHINLHPELDGQEYVVEFDFLGKDSIRYYNKVPVEKRVFKNLQLFMENKQPEDDLFDRLNTGILNKHLQDLMEGLTAKVFRTYNASITLQQQLKELTAPDENIPAKILSYNRANRAVAILCNHQRAPPKTFEKSMMNLQTKIDAKKEQLADARRDLKSAKADAKVMKDAKTKKVVESKKKAVQRLEEQLMKLEVQATDREENKQIALGTSKLNYLDPRITVAWCKKWGVPIEKIYNKTQREKFAWAIDMADEDYEF",effect on catenation of single-stranded DNA molecules in coexistence with the Ev1 protein,Ev1 protein [2],promoted
Rad51B: Rad51B protein purified by the previously reported method (Yokoyama et al.) (protein) MGSKKLKRVGLSQELCDRLSRHQILTCQDFLCLSPLELMKVTGLSYRGVHELLCMVSRACAPKMQTAYGIKAQRSADFSPAFLSTTLSALDEALHGGVACGSLTEITGPPGCGKTQFCIMMSILATLPTNMGGLEGAVVYIDTESAFSAERLVEIAESRFPRYFNTEEKLLLTSSKVHLYRELTCDEVLQRIESLEEEIISKGIKLVILDSVASVVRKEFDAQLQGNLKERNKFLAREASSLKYLAEEFSIPVILTNQITTHLSGALASQADLVSPADDLSLSEGTSGSSCVIAALGNTWSHSVNTRLILQYLDSERRQILIAKSPLAPFTSFVYTIKEEGLVLQAYGNS,effect on catenation of DNA molecules by the Ev1 protein,"Ev1 protein [1]; 4 μM Rad51B, 4 μM Ev1 protein, absence of ATP",not significant
same,effect on catenation of DNA molecules by the Ev1 protein,"Ev1 protein [1]; 4 μM added protein, 4 μM Ev1 protein, presence of ATP",significantly promoted
"DNA topoisomerase type I protein derived from Escherichia coli: TopoI (E. coli, New England Biolabs) (protein, UniProt P06612 1-865, looked up) DNA topoisomerase 1: MGKALVIVESPAKAKTINKYLGSDYVVKSSVGHIRDLPTSGSAAKKSADSTSTKTAKKPKKDERGALVNRMGVDPWHNWEAHYEVLPGKEKVVSELKQLAEKADHIYLATDLDREGEAIAWHLREVIGGDDARYSRVVFNEITKNAIRQAFNKPGELNIDRVNAQQARRFMDRVVGYMVSPLLWKKIARGLSAGRVQSVAVRLVVEREREIKAFVPEEFWEVDASTTTPSGEALALQVTHQNDKPFRPVNKEQTQAAVSLLEKARYSVLEREDKPTTSKPGAPFITSTLQQAASTRLGFGVKKTMMMAQRLYEAGYITYMRTDSTNLSQDAVNMVRGYISDNFGKKYLPESPNQYASKENSQEAHEAIRPSDVNVMAESLKDMEADAQKLYQLIWRQFVACQMTPAKYDSTTLTVGAGDFRLKARGRILRFDGWTKVMPALRKGDEDRILPAVNKGDALTLVELTPAQHFTKPPARFSEASLVKELEKRGIGRPSTYASIISTIQDRGYVRVENRRFYAEKMGEIVTDRLEENFRELMNYDFTAQMENSLDQVANHEAEWKAVLDHFFSDFTQQLDKAEKDPEEGGMRPNQMVLTSIDCPTCGRKMGIRTASTGVFLGCSGYALPPKERCKTTINLVPENEVLNVLEGEDAETNALRAKRRCPKCGTAMDSYLIDPKRKLHVCGNNPTCDGYEIEEGEFRIKGYDGPIVECEKCGSEMHLKMGRFGKYMACTNEECKNTRKILRNGEVAPPKEDPVPLPELPCEKSDAYFVLRDGAAGVFLAANTFPKSRETRAPLVEELYRFRDRLPEKLRYLADAPQQDPEGNKTMVRFSRKTKQQYVSSEKDGKATGWSAFYVDGKWVEGKK",effect on catenation of single-stranded DNA molecules in coexistence with the Ev1 protein,Ev1 protein [2],promoted
